Results: patent US20240026407A1, “MODIFICATION OF SAPONINS” (GLAXOSMITHKLINE BIOLOGICALS SA, priority 2020, published 2024)

B1: 1017 (protein, listed as Kribbella flavida)
chain: MSFPAAPARLRFEHRTDPGPVLGIGTATPRLSWQVPTAPDDYRQAGYEVEIARGDAAPEQYTVDSADQVLVPWPGTPLAARESATVRVRVRGDGDWSQWSDPATVEAGLLSADDWTARFVSPRENAGHEAPAPLIGGVIDLPADIAQARLYATAHGIYEPTLNGTRVGDEQLAPGWTAYEQRLRYQTYDVTDLVAPGENRLELLVGNGWYRGRLGFHGKHSLYGDRLAVLAQLEVTTATGEVKVLASDGTWTTRETNVLADDLYDGQHVDLRRTLGEPGPVDVLDADLSLLVAPDGPPVRVTDVLPAKAVTTSPAGKTLVDFGQNVVGRLRLRVRGGAAGDEIVLRHAEVLEDGELGVRPLRTAKATDSFVLAGPDEVTLEPTLTFHGFRYAEITGVPDLRAEDVEAVVVGSDLRRTGWFESSHPLLDRFHENVVWGMRGNFLDVPTDCPQRDERLGWTGDIQVFSPTASFLFDTAGFLTNWLADLIAEQHKDGSVPFVVPDVLRQPGPATAAWGDAATIVPWVLYERTGDAGLLARQLPSMRAWVDRMAGLAGDDLLWVGGFQFGDWLDPTAPPDDPFRAKADPDVLATAHLARSAEVVALAAEVVGAGELAREYAELAARVRQAFAAEYTTGSGRVLSDAATNYALALQWALLPTEAQRKRAGERLADLVRTAGFRISTGFVGTPLMADALADSGHPDLAYRLLLETGCPSWLYAVTMDATTVWERWDSMLPDGSINPGQMTSFNHYALGAVADWMHRRVAGLAPGDPGYRRIVVDPLFTAHLTKASARHLTPYGEAAVAWSRSGGRVRLEVTVPVGARARVAVPGESAPVEVGHGTHEWTADDVYGETPPLPADATIRQLIDHEPSWTTLAAAATRTGIVADDAELAGRLERYLDHPATELVDAVSPRGFSPSAEALQAELDSVLGR
B2: 1052 (protein, listed as Microbacterium testaceum)
chain: MTTDTRVAAVKAELRTDSPFVATPTPRLTWRVETSTPSWRQASAEITDGATSVPLEGAESALVAWPFAPLEPGERREVRVRVTGVDGAVTAWSAPLAVEAGFLAPDEWVAEPIGLADPEREAQPALVQTAFRLDRPVRRALLLWTALGSAEPEINGRAVSDDVLAPGWSATRDRLVHETVDVTDLLVEGDNVVGATLAGAWYTERYGFFTFTDRIYGDQPAFLAQLRVTFADGTVETVAPTGSAWTATGDAEIVTSGIYAGEHQDLRLRAPWSTPDATTSGTDRRWAPARVGVVARPGHENVPLPEARIAEPVRRHESLPVVARLATPSGGEVLDFGQNLVGRLRLRVRGEAGTTVTIRHAEVLDEGELALRPLRNAKAEASFVLSGGDDVLESRFSFYGFRYAQITGIDVTDAQVEAVVLHSDMERTGWFTSSHALVNRLHENVVWGMRGNFLALPTDCPQRDERLGWTGDLQVFAPTASFLYDCDGFLTSWLRDLALEQERAGGIVPLVIPAALPSFAGGGPVAAWGDAAAVTPTVLHERFGDIGVLAAQYPSMRAWVEAVRADAGDSGLWAGRMQLGDWLDPSAPPDQPGKAKVDGDIVATAYFARSLRQVAEAAALLENTADAETYHALAERSRRAFVSEYVTPAGRMMSDAPTAYALALAFDLVQDAPTRAALADRLAALVRESGYRISTGFVGTPIIADALSDGGHHDAAERLLLQTQCPSWLYPVTQGATTVWERWDSLLPDGSVNPGEMTSFNHYALGAVADWLHRTVAGLAPAAPGYRRLRVAPRPLAAFEHASARHLTAYGPAEVSWEREPGSDVVRVRAIVPPNTTAEVALPGTLADGSEAPAEVGSGTHEWRVTLPAVPVRPPLPGLEAMLADVIDDPRAYAALLDALEETAPERVEGVRSGTVWGAGRPLASALMFTPPDVLARVDRAVRDATA
B3: 1073 (protein, listed as Streptomyces scabiei)
chain: MSHERATAEGTSAAARTAHRPHESPVHGLTVEHRTDPLGVDADRPRFGWRTRSASRGWRQGSYQILVATSPELLTPASADVWDSGRVRSADSVAVRYAGVPLRASTRYHWTVRVWNTEGRAAGTASPAVFETGLMSTDGVGGWDGARWIGMKGKVPGSPGAPLLRTRETLGCGDGRTVGDARLYISALGVYEAHVNGERVTVRQDGERTLELLPPGWTNYDARVDYLTYDVTVLLADGPEVTLAVVLGNGWYNGRVSEGSTYHTQSGNALAVKAKLLIRYTDGTTRSVVTGTSGGWKATDTGPFRADDLYDGQTYDARRELPGWTAPGFDDTAWSDVEHIAFEDRYPGVRLRAYPGESARFVDRWDRRPQSVTVITGVTGQDGSPHGRGRVVVDPARTVTDPAKAATAQVTLAAGETAVFDLGQNMVGVPRYGVRGPAGARVEFRFAEILNDDSAGADGPEGSLYRANLRSAKATSTYILKGDPEGETHQDSLTFYGFRHVSVTASETVTVTGLTGRVATSAVRETGTVTTNDPHVDKLASNIRWGQRGNYLWVPTDCPQRDERLGWTGDTQVFAVTGLYNADAYTFLSHFQDTVVDSQAIYGADGAQYTGVAPGGRYNFPGGGSGWADCGVVLPWTLWQMTGDTTVVEDNWPSMVRYLDWIRRQTGDTYAGQGSLTGDWLAPQKTSAQLMSDAYYGYSAHLMARMARAIGRAEEAATYERLFGRIRQAFIARYLSTEGGRVTVRSGLGDASPIEPGSDPNEKTEDNSQSALLWVLKLGFYENEAQRRALVALLADDIRNDAAHKEAHPDSVRVRYPENTLSVGFLGVNILAPVLTDEGRADLAYELLHQDALPSWLFSVKNGATTVWERWNSWAEDAGFGPVGMNSFNHYAYGAIMEWMYAYMAGIARDPDAPGFKRFLLQPHLDPTGRITRVRATHESPYGEILSAWEVGSGGRRLAYDVAVPANSEATLRVPAVSADSVREGGTPLADVAGVRFLGHTEGVSSYLLPSGRYRLSADLR
B4: 804 (protein, listed as Microbacterium trichothecenolyticum)
chain: MTETATSTHTDSVQHLVPLLDRLTLEQKAALVQGADFWTTVPLPEIGLRAMTLSDGPAGVRGPRWDEREPSLNLPSGSALAASWDVDLAYRYGAAAASEARRKGVDVVLGPTINLHRSPLGGRHFECFSEDPELTAELAAAYVRGLQDNDVAACPKHYVANDSETDRFTVDVRVDERALRENYLAPFERAVDAGAWTIMSAYNAVDGVTMTENDLLETPLNSEWGFDGVVISDWTAVRSLDSVPAAQDLAMPGPAPAWADLVAAIRDGRLNEADLDRKVLRVLLLAQRVGALGEREPREPAPLDGPAFAREAAIEGTVLLRNEGVLPLDASSLGRVAVIGQNAREARTQGGGSATVIPESVVSPLDAIRAAVPGADVGFEIGAVVQEGVAEIPLAHLTNPATGEAGIRVAFFDADGTELFAENRRSTALVWFGGDAPIAASATVVFETLYTPAETGDIELGFAGANPGKLYVDGQLVLDDSPVIEGTDLGAAFLNPPSITATVAVEAGRETAVRVEFSRESHGALSGALSATLGIAPERTDADELIARAVAEAAASDLAIVVVGTNSKVESEGYDRTSLDLPGRQDDLVRAVAATGTPTVVVVNAGSPVVLPWAEDVAAVVQGYFGGQEFGHAIADVLTGAAEPGGRLPTTWPAALADVPVTEVVPTDGRLEYREGLHIGYRAWLKADAVPAFAFGHGLGYTTWSWGAAQRTGDTVEVTLANTGHRRGKQVVQVYAERPESAVERPERWLVGFATVHAAPGETVTATIPVPARRLAHWAGEWTVESGAYTLRAGASVADLPLSLEWRIAS

How the values were obtained:
Format in all cases: biochemical, Quillaja saponaria
[1] = Experiment 6-1: screening of rhamnosidases for derhamnosylation of saponins in treated bark extract (2%), QS-17 2296 to QS-18 2150 (PAR %); conditions: TBE 2%, pH 7.5, 30 degC, 18 h; TIC peak area ratio percent of rhamnosylated starting saponin to derhamnosylated product, LCMS/MS; negative controls 4.876, 5.225
[2] = Experiment 6-1: screening of rhamnosidases for derhamnosylation of saponins in treated bark extract (2%), desglucosyl-QS-17 2134 to QS-21 1988 (PAR %); conditions: TBE 2%, pH 7.5, 30 degC, 18 h; TIC peak area ratio percent, LCMS/MS; negative controls 2.719, 2.158
[3] = Experiment 6-1: screening of rhamnosidases for derhamnosylation of saponins in treated bark extract (2%), QS-17 2310 to QS-18 2164 (PAR %); conditions: TBE 2%, pH 7.5, 30 degC, 18 h; TIC peak area ratio percent, LCMS/MS; negative controls 3.061, 2.429
[4] = Experiment 6-2: screening of rhamnosidases for derhamnosylation of saponins in treated bark extract (25%), relative % of Left, Middle and Right Peak by UV HPLC; conditions: TBE 25%, pH 7.4, 19.5 h; for Left Peak: mainly QS-17 family, negative control 24%; for Middle Peak: mainly QS-18 and desglucosyl-QS-17 family, negative control 50%; for Right Peak: mainly QS-21 family, negative control 26%
[5] = Experiment 6-3: screening of rhamnosidases for derhamnosylation of saponins in crude bark extract (80%), relative % of Left, Middle and Right Peak by UV HPLC; conditions: CBE 80%, pH 7.4, 30 degC, 19.5 h; for Left Peak: mainly QS-17 family, negative control 27%; for Middle Peak: mainly QS-18 and desglucosyl-QS-17 family, negative control 48%; for Right Peak: mainly QS-21 family, negative control 26%
In short: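 Clarified lysates of expressed rhamnosidase variants were incubated with crude bark extract (pH 7.4, final 80%) at 30 degC with shaking for 19.5 h, then quenched with MeCN+2% AcOH. UV HPLC gave relative % of Left (QS-17), Middle (QS-18/desglucosyl-QS-17) and Right (QS-21) peaks.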

[6] = Experiment 6-1: specificity of rhamnosidases towards other rhamnose residues (C3 saccharide rhamnose, C28 saccharide rhamnose); conditions: TBE 2%, pH 7.5, 30 degC, 18 h; LCMS/MS; negative controls 0.18, 0.17
[7] = Experiment 5-1: screening of additional glucosidases for deglycosylation with purified QS-18 (0.04 mg/ml) at pH 7.5 and 30 deg C; conditions: pH 7.5, 30 degrees C, 18 hours, LCMS/MS
Description: The 94 additional genes, together with positive control (DNA encoding SEQ ID No. 262) and negative control, were transformed, expressed, lysed and reacted in the same manner as described above for Experiment 4-1, except the reaction was incubated at 30 degrees C. for 18 hours.
Samples were analysed by LCMS/MS according to the procedure in Experiment 4-1.

[8] = Experiment 5-2: screening of additional glucosidases for deglycosylation with QS-18 in crude bark extract (80%) at pH 6 and 35 deg C; conditions: CBE 80%, pH 6, 35 deg C, 18 hours; UV HPLC
Description: A plate was lysed at pH 6 as described in Experiment 4-2. 40 uL of clarified lysate was transferred to a reaction plate
The pH of CBE was adjusted to pH 6 by dropwise addition of 2M NaOH with stirring. 160 uL of pH 6 CBE was added to each well of the reaction plate. The reaction plate was sealed and incubated at 35 deg C. with shaking for 18 hours.
The reaction plate was quenched by adding 200 uL of MeCN (2% acetic acid (AcOH), 1 mg/mL hexanophenone) to each well of the plates. The quenched reaction plate was re-sealed and incubated at 20 deg C. with shaking for 10 min. The reaction plate was then centrifuged (10 min, 4 degC).
200 uL was transferred from each well of the quenched plate to the corresponding wells of a fresh 96 well plate and sealed. The plate was analysed by UV HPLC with the method of Experiment 4-4.

[9] = Experiment 5-3: screening of additional glucosidases for deglycosylation with QS-18 in treated bark extract (80%) at pH 6 and 35 deg C; conditions: TBE 80% (QS-21 approx. 4 g/L), pH 6, 35 deg C; UV HPLC
Description: Experiment 5-1 was repeated, replacing CBE with Treated Bark Extract (TBE) at pH 6. TBE was prepared from CBE by PVPP treatment and concentration, to provide TBE with a QS-21 concentration of approximately 4 g/L. TBE was adjusted to pH 6 by dropwise addition of 2M NaOH with stirring.

Molecule	QS-17 (PAR %) [1]	Peak75 (PAR %) [2]	Peak57 (PAR %) [3]	Left Peak [4]	Middle Peak [4]	Right Peak [4]	Left Peak [5]	Middle Peak [5]	Right Peak [5]	ratio PP/QS-21 [6]	Experiment 5-1 % conv [7]	Experiment 5-2 % conv [8]	Experiment 5-3 % conv [9]
B1	0.017%	0.000%	0.004%	6%	63%	31%	17%	56%	27%	0.19			
B2	0.000%	0.000%	0.000%	9%	62%	30%	25%	49%	27%	0.16			
B3	0.007%	0.000%	0.000%	6%	62%	31%	20%	52%	28%	0.18			
B4											83.2%	<0.5%	<0.5%
